{
  "source": "paper PMC11077064",
  "about": "“The origin recognition complex requires chromatin tethering by a hypervariable intrinsically disordered region that is functionally conserved from sponge to man”",
  "key": {"DmOrc1 IDR delta4": {"molecular_target": "T1, DmOrc1 IDR delta4 (Drosophila melanogaster, UniProt O16810 187-549, del367-426)", "T1 sequence": "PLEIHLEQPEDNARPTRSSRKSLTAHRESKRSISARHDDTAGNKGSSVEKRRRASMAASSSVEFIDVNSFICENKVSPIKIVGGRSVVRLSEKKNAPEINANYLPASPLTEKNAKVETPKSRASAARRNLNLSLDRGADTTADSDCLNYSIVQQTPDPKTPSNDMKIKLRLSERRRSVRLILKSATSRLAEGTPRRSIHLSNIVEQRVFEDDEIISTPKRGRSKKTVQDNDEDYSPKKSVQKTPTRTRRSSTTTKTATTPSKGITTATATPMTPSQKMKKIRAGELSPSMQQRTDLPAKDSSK", "assay": "EMSA; EMSA: 50 mM HEPES pH 7.5, 150 mM K-glutamate, 10% glycerol, 1 mM BME, 2 nM DNA, RT 20 min, 1% agarose; FP: same with 150 or 300 mM K-glutamate, 5 mM MgOAc, 0 or 1 mM ATP, RT 30 min", "conditions": "protein: recombinant; tags: His6-MBP removed by TEV; blunt (60-bp duplex)"}, "DmOrc1 IDR delta6": {"molecular_target": "T2, DmOrc1 IDR delta6 (Drosophila melanogaster, UniProt O16810 187-486, del487-549)", "T2 sequence": "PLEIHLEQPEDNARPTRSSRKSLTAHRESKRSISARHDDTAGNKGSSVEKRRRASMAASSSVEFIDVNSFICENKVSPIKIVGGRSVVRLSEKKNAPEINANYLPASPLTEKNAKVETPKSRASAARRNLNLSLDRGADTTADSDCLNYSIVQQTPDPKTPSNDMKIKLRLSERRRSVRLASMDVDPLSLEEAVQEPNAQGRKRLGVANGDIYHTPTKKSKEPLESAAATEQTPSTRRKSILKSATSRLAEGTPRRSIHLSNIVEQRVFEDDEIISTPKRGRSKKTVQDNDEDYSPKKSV", "assay": "EMSA; EMSA: 50 mM HEPES pH 7.5, 150 mM K-glutamate, 10% glycerol, 1 mM BME, 2 nM DNA, RT 20 min, 1% agarose; FP: same with 150 or 300 mM K-glutamate, 5 mM MgOAc, 0 or 1 mM ATP, RT 30 min", "conditions": "protein: recombinant; tags: His6-MBP removed by TEV; blunt (60-bp duplex)"}, "DmOrc1 IDR delta2": {"molecular_target": "T3, DmOrc1 IDR delta2 (Drosophila melanogaster, UniProt O16810 187-549, del247-306)", "T3 sequence": "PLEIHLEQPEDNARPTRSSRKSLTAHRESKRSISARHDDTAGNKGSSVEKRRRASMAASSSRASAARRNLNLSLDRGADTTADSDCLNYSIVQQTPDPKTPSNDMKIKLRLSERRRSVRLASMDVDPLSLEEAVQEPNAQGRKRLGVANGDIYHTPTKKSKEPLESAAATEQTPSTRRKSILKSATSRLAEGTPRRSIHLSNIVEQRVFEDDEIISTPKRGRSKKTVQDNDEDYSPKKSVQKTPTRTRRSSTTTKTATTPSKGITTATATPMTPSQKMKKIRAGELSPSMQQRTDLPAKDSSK", "assay": "EMSA; EMSA: 50 mM HEPES pH 7.5, 150 mM K-glutamate, 10% glycerol, 1 mM BME, 2 nM DNA, RT 20 min, 1% agarose; FP: same with 150 or 300 mM K-glutamate, 5 mM MgOAc, 0 or 1 mM ATP, RT 30 min", "conditions": "protein: recombinant; tags: His6-MBP removed by TEV; blunt (60-bp duplex)"}, "DmOrc1 IDR delta3": {"molecular_target": "T4, DmOrc1 IDR delta3 (Drosophila melanogaster, UniProt O16810 187-549, del307-366)", "T4 sequence": "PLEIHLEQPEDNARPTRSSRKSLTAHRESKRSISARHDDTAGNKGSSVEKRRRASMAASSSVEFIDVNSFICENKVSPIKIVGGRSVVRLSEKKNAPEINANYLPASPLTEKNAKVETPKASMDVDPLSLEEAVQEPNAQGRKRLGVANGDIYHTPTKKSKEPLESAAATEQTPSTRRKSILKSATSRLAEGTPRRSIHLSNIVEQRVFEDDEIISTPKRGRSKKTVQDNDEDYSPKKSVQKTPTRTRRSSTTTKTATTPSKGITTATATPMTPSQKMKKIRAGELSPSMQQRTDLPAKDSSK", "assay": "EMSA; EMSA: 50 mM HEPES pH 7.5, 150 mM K-glutamate, 10% glycerol, 1 mM BME, 2 nM DNA, RT 20 min, 1% agarose; FP: same with 150 or 300 mM K-glutamate, 5 mM MgOAc, 0 or 1 mM ATP, RT 30 min", "conditions": "protein: recombinant; tags: His6-MBP removed by TEV; blunt (60-bp duplex)"}, "DmOrc1 IDR delta1": {"molecular_target": "T5, DmOrc1 IDR delta1 (Drosophila melanogaster, UniProt O16810 247-549, del187-246)", "T5 sequence": "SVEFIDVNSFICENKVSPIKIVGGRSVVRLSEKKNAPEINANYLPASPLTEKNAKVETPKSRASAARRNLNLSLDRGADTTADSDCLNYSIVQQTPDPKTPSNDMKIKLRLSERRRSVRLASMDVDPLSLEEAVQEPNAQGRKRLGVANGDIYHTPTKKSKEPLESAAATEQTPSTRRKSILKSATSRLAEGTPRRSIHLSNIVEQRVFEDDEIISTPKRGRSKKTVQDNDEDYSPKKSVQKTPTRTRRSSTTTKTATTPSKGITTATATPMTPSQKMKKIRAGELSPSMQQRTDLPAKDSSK", "assay": "EMSA; EMSA: 50 mM HEPES pH 7.5, 150 mM K-glutamate, 10% glycerol, 1 mM BME, 2 nM DNA, RT 20 min, 1% agarose; FP: same with 150 or 300 mM K-glutamate, 5 mM MgOAc, 0 or 1 mM ATP, RT 30 min", "conditions": "protein: recombinant; tags: His6-MBP removed by TEV; blunt (60-bp duplex)"}, "DmOrc1 IDR delta5": {"molecular_target": "T6, DmOrc1 IDR delta5 (Drosophila melanogaster, UniProt O16810 187-549, del427-486)", "T6 sequence": "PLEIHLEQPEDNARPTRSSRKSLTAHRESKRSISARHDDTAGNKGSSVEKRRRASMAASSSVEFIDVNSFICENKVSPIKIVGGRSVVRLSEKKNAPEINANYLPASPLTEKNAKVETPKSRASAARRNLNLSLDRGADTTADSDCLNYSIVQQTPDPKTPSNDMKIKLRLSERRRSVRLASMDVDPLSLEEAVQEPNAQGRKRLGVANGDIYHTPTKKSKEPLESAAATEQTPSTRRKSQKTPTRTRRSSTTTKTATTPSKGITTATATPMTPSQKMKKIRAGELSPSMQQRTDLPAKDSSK", "assay": "EMSA; EMSA: 50 mM HEPES pH 7.5, 150 mM K-glutamate, 10% glycerol, 1 mM BME, 2 nM DNA, RT 20 min, 1% agarose; FP: same with 150 or 300 mM K-glutamate, 5 mM MgOAc, 0 or 1 mM ATP, RT 30 min", "conditions": "protein: recombinant; tags: His6-MBP removed by TEV; blunt (60-bp duplex)"}, "DmOrc1 IDR [1]": {"molecular_target": "T7, DmOrc1 IDR (Drosophila melanogaster, UniProt O16810 187-549)", "T7 sequence": "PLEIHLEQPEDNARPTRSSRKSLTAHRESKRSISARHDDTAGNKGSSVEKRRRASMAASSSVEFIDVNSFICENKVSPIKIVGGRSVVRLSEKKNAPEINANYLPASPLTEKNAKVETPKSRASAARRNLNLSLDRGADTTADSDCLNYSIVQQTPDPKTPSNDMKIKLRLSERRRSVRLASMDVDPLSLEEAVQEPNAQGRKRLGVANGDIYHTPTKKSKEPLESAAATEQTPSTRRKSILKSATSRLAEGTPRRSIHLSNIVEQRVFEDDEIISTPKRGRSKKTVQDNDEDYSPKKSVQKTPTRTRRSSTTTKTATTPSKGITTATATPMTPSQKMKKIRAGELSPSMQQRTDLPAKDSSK", "assay": "EMSA; unphosphorylated, compared with pOrc1IDR; label not stated; EMSA: 50 mM HEPES pH 7.5, 150 mM K-glutamate, 10% glycerol, 1 mM BME, 2 nM DNA, RT 20 min, 1% agarose; FP: same with 150 or 300 mM K-glutamate, 5 mM MgOAc, 0 or 1 mM ATP, RT 30 min", "conditions": "protein: recombinant; tags: His6-MBP removed by TEV; blunt (60-bp duplex)"}, "DmOrc1 IDR delta P": {"molecular_target": "T8, DmOrc1 IDR delta P (Drosophila melanogaster, UniProt O16810 187-549, S263A;S293A;T304A;T341A;T346A;T401A;T419A;T439A;T463A;S481A;T489A;T505A;T516A;T5 …)", "T8 sequence": "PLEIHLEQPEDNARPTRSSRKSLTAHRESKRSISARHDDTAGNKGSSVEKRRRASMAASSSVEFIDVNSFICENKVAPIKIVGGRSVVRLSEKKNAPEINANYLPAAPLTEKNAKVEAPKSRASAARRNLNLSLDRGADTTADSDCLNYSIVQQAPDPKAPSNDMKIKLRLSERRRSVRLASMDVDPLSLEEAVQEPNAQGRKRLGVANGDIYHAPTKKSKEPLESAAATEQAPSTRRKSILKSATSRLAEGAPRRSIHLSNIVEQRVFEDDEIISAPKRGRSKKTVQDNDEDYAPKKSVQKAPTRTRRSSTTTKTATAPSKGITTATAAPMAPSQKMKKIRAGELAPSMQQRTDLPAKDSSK", "assay": "EMSA; 600 nM; EMSA: 50 mM HEPES pH 7.5, 150 mM K-glutamate, 10% glycerol, 1 mM BME, 2 nM DNA, RT 20 min, 1% agarose; FP: same with 150 or 300 mM K-glutamate, 5 mM MgOAc, 0 or 1 mM ATP, RT 30 min", "conditions": "protein: recombinant; blunt (60-bp duplex)"}, "DmOrc1 IDR delta BP": {"molecular_target": "T9, DmOrc1 IDR delta BP (Drosophila melanogaster, UniProt O16810 187-549, del520-533)", "T9 sequence": "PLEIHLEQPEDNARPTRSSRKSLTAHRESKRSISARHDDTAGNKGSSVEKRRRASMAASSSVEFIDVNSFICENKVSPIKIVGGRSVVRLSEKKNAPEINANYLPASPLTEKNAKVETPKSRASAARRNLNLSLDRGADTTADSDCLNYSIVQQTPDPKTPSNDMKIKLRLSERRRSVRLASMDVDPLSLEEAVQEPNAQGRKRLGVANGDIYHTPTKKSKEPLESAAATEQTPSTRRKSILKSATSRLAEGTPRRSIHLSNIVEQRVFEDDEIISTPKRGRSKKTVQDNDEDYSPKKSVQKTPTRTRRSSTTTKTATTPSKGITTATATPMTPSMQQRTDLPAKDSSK", "assay": "EMSA; text says FITC, legend Cy5; EMSA: 50 mM HEPES pH 7.5, 150 mM K-glutamate, 10% glycerol, 1 mM BME, 2 nM DNA, RT 20 min, 1% agarose; FP: same with 150 or 300 mM K-glutamate, 5 mM MgOAc, 0 or 1 mM ATP, RT 30 min", "conditions": "protein: recombinant; tags: His6-MBP removed by TEV; blunt (60-bp duplex)"}, "DmOrc1 IDR [2]": {"molecular_target": "T7, DmOrc1 IDR", "assay": "EMSA; no ATP; text says FITC, legend Cy5; EMSA: 50 mM HEPES pH 7.5, 150 mM K-glutamate, 10% glycerol, 1 mM BME, 2 nM DNA, RT 20 min, 1% agarose; FP: same with 150 or 300 mM K-glutamate, 5 mM MgOAc, 0 or 1 mM ATP, RT 30 min", "conditions": "protein: recombinant; tags: His6-MBP removed by TEV; blunt (60-bp duplex)"}},
  "data": [
    {"binder": "Cy5-dsDNA 60 bp (dsDNA) DNA 1: GAAGCTAGACTTAGGTGTCATATTGAACCTACTATGCCGAACTAGTTACGAGCTATAACC DNA 2: GGTTATAGCTCGTAACTAGTTCGGCATAGTAGGTTCAATATGACACCTAAGTCTAGCTTC", "values": [
      {"measurement": "Kd", "setting": "DmOrc1 IDR delta4", "result": "62 ± 26", "unit": "nM"},
      {"measurement": "Kd", "setting": "DmOrc1 IDR delta6", "result": "< 100", "unit": "nM"},
      {"measurement": "Kd", "setting": "DmOrc1 IDR delta2", "result": "< 100", "unit": "nM"},
      {"measurement": "Kd", "setting": "DmOrc1 IDR delta3", "result": "< 100", "unit": "nM"},
      {"measurement": "Kd", "setting": "DmOrc1 IDR delta1", "result": "< 100", "unit": "nM"},
      {"measurement": "Kd", "setting": "DmOrc1 IDR delta5", "result": "< 100", "unit": "nM"},
      {"measurement": "Kd", "setting": "DmOrc1 IDR [1]", "result": 21, "unit": "nM"},
      {"measurement": "binding result", "setting": "DmOrc1 IDR delta P", "result": "binds"},
      {"measurement": "Kd", "setting": "DmOrc1 IDR delta BP", "result": "8 ± 2", "unit": "nM"},
      {"measurement": "Kd", "setting": "DmOrc1 IDR [2]", "result": "15 ± 4", "unit": "nM"}
    ]}
  ]
}
